Laboratory results from patent publication US20250333467A1 (TECTONIC OPERATING, published 2025).
Read-outs that look alike come from different tables or passages of the source.

T1: human RXFP1 (human, UniProt Q9HBX9 1-757)
T1 sequence (looked up): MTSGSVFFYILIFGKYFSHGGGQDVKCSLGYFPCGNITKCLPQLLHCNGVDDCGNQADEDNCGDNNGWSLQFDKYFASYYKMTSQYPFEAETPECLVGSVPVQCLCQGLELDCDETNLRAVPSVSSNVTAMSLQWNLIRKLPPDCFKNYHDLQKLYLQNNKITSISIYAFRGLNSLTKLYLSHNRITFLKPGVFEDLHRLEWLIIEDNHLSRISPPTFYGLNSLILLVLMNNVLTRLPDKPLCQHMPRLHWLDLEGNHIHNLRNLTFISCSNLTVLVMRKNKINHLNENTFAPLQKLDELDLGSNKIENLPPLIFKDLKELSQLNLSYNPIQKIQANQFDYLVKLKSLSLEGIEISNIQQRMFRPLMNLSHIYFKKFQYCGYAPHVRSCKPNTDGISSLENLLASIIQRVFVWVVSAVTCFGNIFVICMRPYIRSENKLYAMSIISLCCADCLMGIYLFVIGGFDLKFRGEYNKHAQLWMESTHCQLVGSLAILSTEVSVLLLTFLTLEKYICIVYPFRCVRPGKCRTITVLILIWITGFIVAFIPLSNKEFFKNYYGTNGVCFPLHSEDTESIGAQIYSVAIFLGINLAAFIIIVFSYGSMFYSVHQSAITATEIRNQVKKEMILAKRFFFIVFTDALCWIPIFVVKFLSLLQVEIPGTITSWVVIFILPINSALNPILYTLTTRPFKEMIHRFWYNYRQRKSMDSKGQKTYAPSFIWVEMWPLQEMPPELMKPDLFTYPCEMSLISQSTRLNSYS

T2: rat RXFP1 (rat, UniProt Q6R6I6 1-758)
T2 sequence (looked up): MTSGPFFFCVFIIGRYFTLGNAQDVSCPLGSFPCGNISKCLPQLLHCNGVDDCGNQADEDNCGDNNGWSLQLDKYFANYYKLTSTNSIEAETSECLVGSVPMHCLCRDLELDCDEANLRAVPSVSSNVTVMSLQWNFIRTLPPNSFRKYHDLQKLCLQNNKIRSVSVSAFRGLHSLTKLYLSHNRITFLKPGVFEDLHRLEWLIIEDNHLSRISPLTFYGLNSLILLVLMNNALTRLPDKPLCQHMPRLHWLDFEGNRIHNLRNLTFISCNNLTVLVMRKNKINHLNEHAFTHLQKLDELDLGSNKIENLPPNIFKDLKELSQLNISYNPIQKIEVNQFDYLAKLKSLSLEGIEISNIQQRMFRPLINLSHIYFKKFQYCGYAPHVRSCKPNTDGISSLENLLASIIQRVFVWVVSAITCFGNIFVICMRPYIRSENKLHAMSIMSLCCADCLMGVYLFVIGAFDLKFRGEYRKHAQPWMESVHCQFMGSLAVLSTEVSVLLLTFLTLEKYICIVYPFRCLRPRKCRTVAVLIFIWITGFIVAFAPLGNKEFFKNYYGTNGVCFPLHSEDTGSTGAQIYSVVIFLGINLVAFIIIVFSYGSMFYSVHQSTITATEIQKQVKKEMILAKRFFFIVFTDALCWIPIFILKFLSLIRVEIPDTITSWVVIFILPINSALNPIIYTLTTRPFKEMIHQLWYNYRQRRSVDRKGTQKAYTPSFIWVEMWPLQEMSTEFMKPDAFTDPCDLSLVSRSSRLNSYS


What was measured:
Assay in all cases: cell-based or functional assay
human RXFP1 [1] = target: T1, human RXFP1
rat RXFP1 = target: T2, rat RXFP1
human RXFP1 [2] = target: T1, human RXFP1; remark: listed apart in the source
human RXFP1 [3] = target: T1, human RXFP1; remark: listed apart in the source

| Binder | Potency (cAMP, transient hRXFP1 in HEK293) (human RXFP1 [1]) [nM] | Transient HEK293 rRXFP1 cAMP EC50 (rat RXFP1) [nM] | THP1 (endogenous RXFP1) cAMP EC50 (human RXFP1 [2]) [nM] | Transient HEK293 hRXFP1 cAMP EC50 (human RXFP1 [2]) [nM] | Potency (cAMP, transient hRXFP1 in HEK293) (human RXFP1 [3]) [nM] |
| --- | --- | --- | --- | --- | --- |
| SEQ ID NO: 313 (Fc fusion) DKTHTCPPCPAPEAAGGPSVFLFPPKPKDTLMISRTPEVTCVVVDVSHEDPEVKFNWYVDGVEVHNAKTKPREEQYNSTYRVVSVLTVLHQDWLNGKEYKCKVSNKALAAPIEKTISKAKGQPREPQVYTLPPSRDELTKNQVSLTCLVKGFYPSDIAVEWESNGQPENNYKTTPPVLDSDGSFFLYSKLTVDKSRWQQGNVFSCSVLHEALHSHYTQKSLSLSPGKGGSDSWQEEVIKLCGRELVRAQIAICGKSTGGGEGGGEGGGEGRQLYSALANKCCHVGCTKRSLAQFC | 4.2 | 15.1 | 49 | 10 |  |
| SEQ ID NO: 129 (Fc fusion) DKTHTCPPCPAPEAAGGPSVFLFPPKPKDTLMISRTPEVTCVVVDVSHEDPEVKFNWYVDGVEVHNAKTKPREEQYNSTYRVVSVLTVLHQDWLNGKEYKCKVSNKALAAPIEKTISKAKGQPREPQVYTLPPSRDELTKNQVSLTCLVKGFYPSDIAVEWESNGQPENNYKTTPPVLDSDGSFFLYSKLTVDKSRWQQGNVFSCSVLHEALHSHYTQKSLSLSPGEGGSDSYQEEVIKLCGRELVRAQIAICGKSTGGEGSGGEGEGGGRQLYSALANKCCYVGCTKRSLAQFC |  |  |  |  | 42.4 |
| SEQ ID NO: 132 (Fc fusion) DKTHTCPPCPAPEAAGGPSVFLFPPKPKDTLMISRTPEVTCVVVDVSHEDPEVKFNWYVDGVEVHNAKTKPREEQYNSTYRVVSVLTVLHQDWLNGKEYKCKVSNKALAAPIEKTISKAKGQPREPQVYTLPPSRDELTKNQVSLTCLVKGFYPSDIAVEWESNGQPENNYKTTPPVLDSDGSFFLYSKLTVDKSRWQQGNVFSCSVLHEALHSHYTQKSLSLSPGEGGSDSYQEEVIKLCGRELVRAQIAICGKSTGGEGSGGEGSGGGRQLYSALANKCCKVGCTKRSLAQFC |  |  |  |  | 11.2 |
| SEQ ID NO: 131 (Fc fusion) DKTHTCPPCPAPEAAGGPSVFLFPPKPKDTLMISRTPEVTCVVVDVSHEDPEVKFNWYVDGVEVHNAKTKPREEQYNSTYRVVSVLTVLHQDWLNGKEYKCKVSNKALAAPIEKTISKAKGQPREPQVYTLPPSRDELTKNQVSLTCLVKGFYPSDIAVEWESNGQPENNYKTTPPVLDSDGSFFLYSKLTVDKSRWQQGNVFSCSVLHEALHSHYTQKSLSLSPGEGGSDSYQEEVIKLCGRELVRAQIAICGKSTGGEGSGGEGSGGGRQLYSALANKCCYVGCTKRSLAQFC |  |  |  |  | 16.4 |
| SEQ ID NO: 130 (Fc fusion) DKTHTCPPCPAPEAAGGPSVFLFPPKPKDTLMISRTPEVTCVVVDVSHEDPEVKFNWYVDGVEVHNAKTKPREEQYNSTYRVVSVLTVLHQDWLNGKEYKCKVSNKALAAPIEKTISKAKGQPREPQVYTLPPSRDELTKNQVSLTCLVKGFYPSDIAVEWESNGQPENNYKTTPPVLDSDGSFFLYSKLTVDKSRWQQGNVFSCSVLHEALHSHYTQKSLSLSPGEGGSDSYQEEVIKLCGRELVRAQIAICGKSTGGEGSGGEGEGGGRQLYSALANKCCKVGCTKRSLAQFC |  |  |  |  | 24.6 |
| SEQ ID NO: 317 (Fc fusion) DKTHTCPPCPAPEAAGGPSVFLFPPKPKDTLMISRTPEVTCVVVDVSHEDPEVKFNWYVDGVEVHNAKTKPREEQYNSTYRVVSVLTVLHQDWLNGKEYKCKVSNKALAAPIEKTISKAKGQPREPQVYTLPPSRDELTKNQVSLTCLVKGFYPSDIAVEWESNGQPENNYKTTPPVLDSDGSFFLYSKLTVDKSRWQQGNVFSCSVLHEALHSHYTQKSLSLSPGGGSDSWQEEVIKLCGRELVRAQIAICGKSTGGGEGGGEGGGEGRQLYSALANKCCHVGCTKRSLAQFC | 8 | 31.2 | 63 | 38.2 |  |
| SEQ ID NO: 86 (Fc fusion) DKTHTCPPCPAPEAAGGPSVFLFPPKPKDTLMISRTPEVTCVVVDVSHEDPEVKFNWYVDGVEVHNAKTKPREEQYNSTYRVVSVLTVLHQDWLNGKEYKCKVSNKALAAPIEKTISKAKGQPREPQVYTLPPSRDELTKNQVSLTCLVKGFYPSDIAVEWESNGQPENNYKTTPPVLDSDGSFFLYSKLTVDKSRWQQGNVFSCSVLHEALHSHYTQKSLSLSPGKGGSDSWQEEVIKLCGRELVRAQIAICGKSTASDAAGADADAGARQLYSALANKCCHVGCTKRSLAQFC | 4 | 24.5 | 30 | 7.46 |  |
| SEQ ID NO: 128 (Fc fusion) DKTHTCPPCPAPEAAGGPSVFLFPPKPKDTLMISRTPEVTCVVVDVSHEDPEVKFNWYVDGVEVHNAKTKPREEQYNSTYRVVSVLTVLHQDWLNGKEYKCKVSNKALAAPIEKTISKAKGQPREPQVYTLPPSRDELTKNQVSLTCLVKGFYPSDIAVEWESNGQPENNYKTTPPVLDSDGSFFLYSKLTVDKSRWQQGNVFSCSVLHEALHSHYTQKSLSLSPGEGGSDSYQEEVIKLCGRELVRAQIAICGKSTASDAAGAEAEAGARQLYSALANKCCKVGCTKRSLAQFC |  |  |  |  | 23.2 |
| SEQ ID NO: 93 (Fc fusion) DKTHTCPPCPAPEAAGGPSVFLFPPKPKDTLMISRTPEVTCVVVDVSHEDPEVKFNWYVDGVEVHNAKTKPREEQYNSTYRVVSVLTVLHQDWLNGKEYKCKVSNKALAAPIEKTISKAKGQPREPQVYTLPPSRDELTKNQVSLTCLVKGFYPSDIAVEWESNGQPENNYKTTPPVLDSDGSFFLYSKLTVDKSRWQQGNVFSCSVLHEALHSHYTQKSLSLSPGEGGSDSWQEEVIKLCGRELVRAQIAICGKSTASDAAGADADAGARQLYSALANKCCHVGCTKRSLAQFC | 11.1 | 21.3 | 90 | 19.1 |  |
| SEQ ID NO: 91 (Fc fusion) DKTHTCPPCPAPEAAGGPSVFLFPPKPKDTLMISRTPEVTCVVVDVSHEDPEVKFNWYVDGVEVHNAKTKPREEQYNSTYRVVSVLTVLHQDWLNGKEYKCKVSNKALAAPIEKTISKAKGQPREPQVYTLPPSRDELTKNQVSLTCLVKGFYPSDIAVEWESNGQPENNYKTTPPVLDSDGSFFLYSKLTVDKSRWQQGNVFSCSVLHEALHSHYTQKSLSLSPGEGGSDSWQEEVIKLCGRELVRAQIAICGKSTASDAAGADANAGARQLYSALANKCCHVGCTKRSLAQFC | 3.9 | 12.4 | 30 | 10.2 |  |
| SEQ ID NO: 126 (Fc fusion) DKTHTCPPCPAPEAAGGPSVFLFPPKPKDTLMISRTPEVTCVVVDVSHEDPEVKFNWYVDGVEVHNAKTKPREEQYNSTYRVVSVLTVLHQDWLNGKEYKCKVSNKALAAPIEKTISKAKGQPREPQVYTLPPSRDELTKNQVSLTCLVKGFYPSDIAVEWESNGQPENNYKTTPPVLDSDGSFFLYSKLTVDKSRWQQGNVFSCSVLHEALHSHYTQKSLSLSPGKGGSDSWQEEVIKLCGRELVRAQIAICGKSTASDAAGAEAEAGARQLYSALANKCCKVGCTKRSLAQFC |  |  |  |  | 8.3 |
| SEQ ID NO: 127 (Fc fusion) DKTHTCPPCPAPEAAGGPSVFLFPPKPKDTLMISRTPEVTCVVVDVSHEDPEVKFNWYVDGVEVHNAKTKPREEQYNSTYRVVSVLTVLHQDWLNGKEYKCKVSNKALAAPIEKTISKAKGQPREPQVYTLPPSRDELTKNQVSLTCLVKGFYPSDIAVEWESNGQPENNYKTTPPVLDSDGSFFLYSKLTVDKSRWQQGNVFSCSVLHEALHSHYTQKSLSLSPGEGGSDSYQEEVIKLCGRELVRAQIAICGKSTASDAAGAEAEAGARQLYSALANKCCYVGCTKRSLAQFC |  |  |  |  | 32 |
